The target in assay [1] is T1, human CK1δ kinase domain (CK1δ ΔC, residues 1–317) (human, UniProt P48730 1-317).
T1 construct: N-terminal vector artifact left after TEV cleavage; human casein kinase 1 delta, catalytic domain, residues 1-317; also called CK1δ∆C; source: E. coli Rosetta (DE3), purified (Ni-NTA, TEV cleavage, GST column, SEC); not shown: His-GST, N-terminal, cleaved
T1 sequence: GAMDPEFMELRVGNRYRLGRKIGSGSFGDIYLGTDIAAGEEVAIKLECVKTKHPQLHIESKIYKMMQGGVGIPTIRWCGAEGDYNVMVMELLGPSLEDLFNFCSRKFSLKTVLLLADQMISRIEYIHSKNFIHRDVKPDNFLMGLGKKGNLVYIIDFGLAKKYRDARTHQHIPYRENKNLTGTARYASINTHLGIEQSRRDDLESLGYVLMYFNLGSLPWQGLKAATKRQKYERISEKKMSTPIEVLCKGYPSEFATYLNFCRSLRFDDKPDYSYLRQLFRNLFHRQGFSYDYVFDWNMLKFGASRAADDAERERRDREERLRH
Kind of assay: pull-down; magnetic streptavidin beads hold biotinylated LIN-42 CK1BD + Tail WT or mutants (5 µM), with and without CK1δ ΔC (5 µM). As to conditions: both partners purified.

Assay [2] addresses T2, biotinylated human CK1δ kinase domain (CK1δ ΔC, residues 1–317) (human, UniProt P48730 1-317, biotin on the N-terminus (Sortase A reaction of biotin-LPETGG with the N-terminal G of GAMDPEF)).
T2 construct: N-terminal vector artifact left after TEV cleavage; its first G is joined to the sortase peptide; human casein kinase 1 delta, catalytic domain, residues 1-317; After the sortase reaction the N-terminus should read biotin-LPET-GAMDPEF-; also called biotinylated CK1; not shown: His-GST, N-terminal, cleaved; biotin-LPETGG sortase peptide, N-terminal, kept
T2 sequence: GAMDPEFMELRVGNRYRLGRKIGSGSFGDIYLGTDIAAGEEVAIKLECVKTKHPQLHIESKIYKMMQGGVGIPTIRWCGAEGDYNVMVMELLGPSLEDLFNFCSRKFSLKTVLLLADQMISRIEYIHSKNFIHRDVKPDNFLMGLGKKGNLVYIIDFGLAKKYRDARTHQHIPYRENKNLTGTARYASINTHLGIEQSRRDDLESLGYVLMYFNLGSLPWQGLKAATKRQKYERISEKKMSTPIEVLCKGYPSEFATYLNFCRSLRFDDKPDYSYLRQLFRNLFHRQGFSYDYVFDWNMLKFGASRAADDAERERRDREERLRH
The assay is described as follows: BLI; biotinylated CK1δ ΔC immobilised on streptavidin biosensors, LIN-42 fragments titrated; SEC buffer (50 mM Tris pH 7.5, 200 mM NaCl, 1 mM EDTA, 5% glycerol, 1 mM TCEP, 0.05% Tween-20) with 7.5 mM BSA as printed; Octet-RED96e; kinetic analysis, 2:1 heterogeneous ligand binding model, global fit. Particulars: both partners purified.

B1: biotinylated LIN-42 CK1BD + Tail (residues 402–598), wild type (domain or fragment, C. elegans)
chain: GAMDPEFLSYTQINCLENVHRLLKSQSRPESPAKQDEPFDEKKYPPQTPLTREALTLHTKRFEDEYKDTWCRRLKRLSDDVPSSPPAKRTTPIHWTSSSQNHYRTMAPAPPPPPGKNYQITYTPLDDLTDQKSTNTKSDVENVAYPISGSKFSTPMRLSIDGLLPRGATSTGGASPTSGTNSPPVFPKTSSSSSLLMLRDSQN
modifications: biotin on the N-terminus (Sortase A reaction of biotin-LPETGG with the N-terminal G of GAMDPEF)
notes: N-terminal vector artifact left after TEV cleavage; its first G is joined to the sortase peptide; LIN-42, C. elegans, residues 402-598 (CK1BD and C-terminal tail); After the sortase reaction the N-terminus should read biotin-LPET-GAMDPEF-; also called biotinylated LIN-42 CK1BD + Tail WT; wild-type LIN-42 protein; not shown: His-NusA, N-terminal, cleaved; biotin-LPETGG sortase peptide, N-terminal, …
Consider B1, for which the binding result in assay [1] is listed as “binds”.

B2: LIN-42 CK1BD + Tail (residues 402–598) (domain or fragment, C. elegans)
chain: GAMDPEFLSYTQINCLENVHRLLKSQSRPESPAKQDEPFDEKKYPPQTPLTREALTLHTKRFEDEYKDTWCRRLKRLSDDVPSSPPAKRTTPIHWTSSSQNHYRTMAPAPPPPPGKNYQITYTPLDDLTDQKSTNTKSDVENVAYPISGSKFSTPMRLSIDGLLPRGATSTGGASPTSGTNSPPVFPKTSSSSSLLMLRDSQN
notes: N-terminal vector artifact left after TEV cleavage; LIN-42, C. elegans, residues 402-598 (CK1BD and C-terminal tail); numbers fit the longest isoform of 598 amino acids; also called wild-type LIN-42 CK1BD + Tail; source: E. coli Rosetta (DE3), purified (Ni-NTA, TEV cleavage, second Ni-NTA, SEC); not shown: His-NusA, N-terminal, cleaved
Take B2: the dissociation constant (Kd) in assay [2] is 309 nM.

B3: biotinylated LIN-42 CK1BD-∆A + Tail (residues 434–598) (domain or fragment, C. elegans)
chain: GAMDPEFDEKKYPPQTPLTREALTLHTKRFEDEYKDTWCRRLKRLSDDVPSSPPAKRTTPIHWTSSSQNHYRTMAPAPPPPPGKNYQITYTPLDDLTDQKSTNTKSDVENVAYPISGSKFSTPMRLSIDGLLPRGATSTGGASPTSGTNSPPVFPKTSSSSSLLMLRDSQN
modifications: biotin on the N-terminus (Sortase A reaction of biotin-LPETGG with the N-terminal G of GAMDPEF)
notes: N-terminal vector artifact left after TEV cleavage; its first G is joined to the sortase peptide; LIN-42, C. elegans, residues 434-598: CK1BD + Tail without the SYQ/CK1BD-A motif; also called biotinylated CK1BD + Tail mutant, SYQ/CK1BD-A deleted; not shown: His-NusA, N-terminal, cleaved; biotin-LPETGG sortase peptide, N-terminal, kept
Regarding B3, the binding result in assay [1] is given as “binds”.

B4: LIN-42 CK1BD-∆A + Tail (residues 434–598) (domain or fragment, C. elegans)
chain: GAMDPEFDEKKYPPQTPLTREALTLHTKRFEDEYKDTWCRRLKRLSDDVPSSPPAKRTTPIHWTSSSQNHYRTMAPAPPPPPGKNYQITYTPLDDLTDQKSTNTKSDVENVAYPISGSKFSTPMRLSIDGLLPRGATSTGGASPTSGTNSPPVFPKTSSSSSLLMLRDSQN
notes: N-terminal vector artifact left after TEV cleavage; LIN-42, C. elegans, residues 434-598: CK1BD + Tail without the SYQ/CK1BD-A motif; source: E. coli Rosetta (DE3), purified (Ni-NTA, TEV cleavage, second Ni-NTA, SEC); not shown: His-NusA, N-terminal, cleaved
In turn, B4 returned a Kd in assay [2] of approximately 3000 nM.

B5: LIN-42 CK1BD (residues 402–475) (domain or fragment, C. elegans)
chain: GAMDPEFLSYTQINCLENVHRLLKSQSRPESPAKQDEPFDEKKYPPQTPLTREALTLHTKRFEDEYKDTWCRRLKRLSDDV
notes: N-terminal vector artifact left after TEV cleavage; LIN-42, C. elegans, residues 402-475 (SYQ/CK1BD-A and LT/CK1BD-B); numbers fit the longest isoform of 598 amino acids; also called truncated fragment of LIN-42 lacking the C-terminal tail; source: E. coli Rosetta (DE3), purified (Ni-NTA, TEV cleavage, second Ni-NTA, SEC); not shown: His-NusA, N-terminal, cleaved
B5: in assay [2], binding was characterised by a dissociation constant (Kd) of 303 nM.
